Assay results taken from the supplement of paper PMC7877785.
± gives the uncertainty stated by the source.

Assay: self-splicing fitness, log relative to wild type (ln ratio); higher = more splicing; Tetrahymena group I intron in knt gene, E. coli kanamycin selection, DiMSum; sequences stand for … in CUCUCU…GGAGGGAAAAGUUAUCAGGCAUGCACCUGGUAGCUAGUCUUUAAACCAAUAGAUUGCAUCGGUUUAAAAGGCAAGACCGUCAAAUUGCGGGAAAGGGGUCAACAGCCGUUCAGUACCAAGUCUCAGGGGAAACUUUGAGAUGGCCUUGCAAAGGGUAUGGUAAUAAGCUGACGGACAUGGUCCUAACCACGCAGCCAAGUCCUAAGUCAACAGAUCUUCUGUUGAUAUGGAUGCAGUUCACAGACUAAAUGUCGGUCGGGGAAGAUGUAUUCUUCUCAUAAGAUAUAGUCGGACCUCUCCUUAAUGGGAGCUAGCGGAUGAAGUGAUGCAACACUGGAGCCGCUGGGAACUAAUUUGUAUGCGAAAGUAUAUUGAUUAGUUUUGGAGUACUCGUGGUCG
In short: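 A randomised library covering all eight P1ex-region intron nucleotides was built with the intron in the knt kanamycin-resistance gene on pET-22b(+) and held in E. coli BL21(DE3). Cells were grown overnight at 37°C or 30°C on LB agar, with or without 25 μg/mL kanamycin, plus 100 μg/mL carbenicillin, 50 μM IPTG and 0.2% rhamnose, and pooled colonies were amplicon-sequenced on an Illumina HiSeq 2500. DiMSum fitness is the error-weighted combination of wild-type-normalised replicate fold changes, kanamycin versus none.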

With UUUGAGCAAUAUUACGAAGA the “self-splicing fitness (ln)” value (30 °C) was -2.31 ± 0.44 and the “self-splicing fitness (ln)” value (37 °C) was -1.55 ± 0.38.
With UUUGAGCAAUAUUACGACUU the “self-splicing fitness (ln)” value (30 °C) was -3.13 ± 0.34 and the “self-splicing fitness (ln)” value (37 °C) was -2.28 ± 0.37.
For UUUGAGCAAUAUUACGAGCU, the “self-splicing fitness (ln)” value (30 °C) was -2.69 ± 0.39.
In the case of UUUGAGCAAUAUUACGAUUA, the “self-splicing fitness (ln)” value (30 °C) is reported as -2.13 ± 0.41 and the “self-splicing fitness (ln)” value (37 °C) is reported as -2.41 ± 0.36.
In the case of UUUGAGCAAUAUUACGCAGA, the “self-splicing fitness (ln)” value (37 °C) is reported as -1.51 ± 0.32.
For UUUGAGCAAUAUUACGCCCU, the “self-splicing fitness (ln)” value (30 °C) was -1.25 ± 0.41 and the “self-splicing fitness (ln)” value (37 °C) was -1.96 ± 0.41.
With UUUGAGCAAUAUUACGGAAC the “self-splicing fitness (ln)” value (30 °C) was -1.63 ± 0.16 and the “self-splicing fitness (ln)” value (37 °C) was -1.2 ± 0.24.
For UUUGAGCAAUAUUACGGAUG, the “self-splicing fitness (ln)” value (30 °C) was -2.66 ± 0.21.
For UUUGAGCAAUAUUACGGCUG, the “self-splicing fitness (ln)” value (30 °C) was -0.955 ± 0.11 and the “self-splicing fitness (ln)” value (37 °C) was -0.634 ± 0.17.
With UUUGAGCAAUAUUACGGUCC the “self-splicing fitness (ln)” value (30 °C) was -3.88 ± 0.28 and the “self-splicing fitness (ln)” value (37 °C) was -1.8 ± 0.23.
For UUUGAGCAAUAUUACGGUCU, the “self-splicing fitness (ln)” value (37 °C) was -2.63 ± 0.41.
With UUUGAGCAAUAUUACGGUGG the “self-splicing fitness (ln)” value (30 °C) was -2.98 ± 0.31.
For UUUGAGCAAUAUUACGGUUU, the “self-splicing fitness (ln)” value (30 °C) was -3.23 ± 0.48 and the “self-splicing fitness (ln)” value (37 °C) was -1.92 ± 0.32.
With UUUGAGCAAUAUUACGUAAU the “self-splicing fitness (ln)” value (30 °C) was -3.94 ± 0.43 and the “self-splicing fitness (ln)” value (37 °C) was -1.65 ± 0.23.
With UUUGAGCAAUAUUACGUCAA the “self-splicing fitness (ln)” value (30 °C) was -1.66 ± 0.21 and the “self-splicing fitness (ln)” value (37 °C) was -2.66 ± 0.37.
With UUUGAGCAAUAUUACGUCGC the “self-splicing fitness (ln)” value (30 °C) was -3.06 ± 0.49 and the “self-splicing fitness (ln)” value (37 °C) was -2.07 ± 0.47.
For UUUGAGCAAUAUUACGUGUG, the “self-splicing fitness (ln)” value (30 °C) was -3.37 ± 0.23 and the “self-splicing fitness (ln)” value (37 °C) was -2.55 ± 0.33.
With UUUUAGCAAUAUUACGAAAU the “self-splicing fitness (ln)” value (30 °C) was -2.34 ± 0.34 and the “self-splicing fitness (ln)” value (37 °C) was -1.72 ± 0.27.
For UUUUAGCAAUAUUACGACUG, the “self-splicing fitness (ln)” value (30 °C) was -0.652 ± 0.097 and the “self-splicing fitness (ln)” value (37 °C) was -0.152 ± 0.13.
For UUUUAGCAAUAUUACGAGGG, the “self-splicing fitness (ln)” value (30 °C) was -2.9 ± 0.42.
In the case of UUUUAGCAAUAUUACGAUAU, the “self-splicing fitness (ln)” value (30 °C) is reported as -2.66 ± 0.22 and the “self-splicing fitness (ln)” value (37 °C) is reported as -1.42 ± 0.28.
With UUUUAGCAAUAUUACGCAUG the “self-splicing fitness (ln)” value (30 °C) was -1.3 ± 0.12 and the “self-splicing fitness (ln)” value (37 °C) was -0.672 ± 0.13.
In the case of UUUUAGCAAUAUUACGCGCU, the “self-splicing fitness (ln)” value (30 °C) is reported as -2.57 ± 0.25 and the “self-splicing fitness (ln)” value (37 °C) is reported as -0.994 ± 0.21.
For UUUUAGCAAUAUUACGGAAA, the “self-splicing fitness (ln)” value (30 °C) was -1.73 ± 0.23 and the “self-splicing fitness (ln)” value (37 °C) was -1.14 ± 0.34.
With UUUUAGCAAUAUUACGGGCG the “self-splicing fitness (ln)” value (30 °C) was -0.356 ± 0.12 and the “self-splicing fitness (ln)” value (37 °C) was -0.216 ± 0.19.
For UUUUAGCAAUAUUACGGGUG, the “self-splicing fitness (ln)” value (30 °C) was -1.65 ± 0.11 and the “self-splicing fitness (ln)” value (37 °C) was -0.739 ± 0.14.
In the case of UUUUAGCAAUAUUACGGUGA, the “self-splicing fitness (ln)” value (30 °C) is reported as -0.38 ± 0.15 and the “self-splicing fitness (ln)” value (37 °C) is reported as 0.0249 ± 0.14.
In the case of UUUUAGCAAUAUUACGUAAU, the “self-splicing fitness (ln)” value (30 °C) is reported as -3.62 ± 0.28 and the “self-splicing fitness (ln)” value (37 °C) is reported as -1.6 ± 0.22.
For UUUUAGCAAUAUUACGUAUG, the “self-splicing fitness (ln)” value (30 °C) was -2.01 ± 0.19 and the “self-splicing fitness (ln)” value (37 °C) was -0.735 ± 0.2.
With UUUUAGCAAUAUUACGUCAA the “self-splicing fitness (ln)” value (30 °C) was -2.59 ± 0.17 and the “self-splicing fitness (ln)” value (37 °C) was -1.34 ± 0.13.
For UUUUAGCAAUAUUACGUCCG, the “self-splicing fitness (ln)” value (30 °C) was -2.37 ± 0.34 and the “self-splicing fitness (ln)” value (37 °C) was 0.963 ± 0.33.
With UUUUAGCAAUAUUACGUCCU the “self-splicing fitness (ln)” value (37 °C) was 0.494 ± 0.32.
For UUUUAGCAAUAUUACGUGCA, the “self-splicing fitness (ln)” value (30 °C) was -2.12 ± 0.17 and the “self-splicing fitness (ln)” value (37 °C) was -1.11 ± 0.18.
For UUUUAGCAAUAUUACGUGGC, the “self-splicing fitness (ln)” value (30 °C) was -3.09 ± 0.42.
In the case of UUUUAGCAAUAUUACGUGGU, the “self-splicing fitness (ln)” value (30 °C) is reported as -3.72 ± 0.35 and the “self-splicing fitness (ln)” value (37 °C) is reported as -3.24 ± 0.42.
For UUUUAGCAAUAUUACGUUGA, the “self-splicing fitness (ln)” value (37 °C) was -1.8 ± 0.36.
With UUUUAGCAAUAUUACGUUGG the “self-splicing fitness (ln)” value (30 °C) was -2.07 ± 0.21 and the “self-splicing fitness (ln)” value (37 °C) was -2.23 ± 0.32.
